Data on 2 substances can be found in PMC6781444.

The assay addresses 80S ribosome (rabbit (endogenous in reticulocyte lysate)). The assay can be described thus: co-sedimentation.

A value given as a limit tells only on which side of the number the result lay.

In turn, “SRdC, SRαβΔTM with the CBR of SRα (residues 129–176) replaced with (GS)6 (from UniProt P08240;Q9Y5M8) (complex)” had a fold reduction of cosedimentation against WT SR greater than 2 fold.
In the case of “SRdR, SRαβΔTM with the RBR of SRα (residues 205–250) replaced with (GS)6 (from UniProt P08240;Q9Y5M8) (complex)”, the fold reduction of cosedimentation against WT SR is greater than 2 fold.
